Measured values reported in patent US20090280128A1 (SBI BIOTECH, published 2009).
Positions count from the first letter of the chain named.

B1: anti-ILT7 antibody #17 (mouse anti-human ILT7 monoclonal antibody produced by hybridoma #17, FERM BP-10705) (antibody, V domains shown)
VH: QVQLKQSGAELVRPGASVKLSCKTSGYIFTSYWIHWVKQRSGQGLEWIARIYPGTGSTYYNEKFKGKATLTADKSSSTAYMQLSSLKSEDSAVYFCARYPTYDWYFDVWGAGTTVTVSS
VL: DIVLTQSPATLSVTPGDRVSLSCRASQSISNYLHWYQQKSHESPRLLIKYASQSISGIPSRFSGSGSGTDFTLSINSVETEDFGMYFCQQSNSWPLTFGAGTKLELK
notes: Mouse hybridoma antibody as tested; also called ILT7#17
B2: anti-ILT7 antibody #11 (mouse anti-human ILT7 monoclonal antibody produced by hybridoma #11, FERM BP-10704) (antibody, V domains shown)
VH: DVQLQESGPGLVKPSQSLSLTCTVTGYSITSDYAWNWIRQFPGNKLEWMGYISYSGSTSYNPSLKSRISITRDTSKNQFFLQLNSVTTEDTATYYCARSPPYYAMDYWGQGTSVTVSS
VL: DIVMTQSHKFMSTSVGDRVSITCKASQDVGTAVAWYQQKPGQSPKLLIYWASTRHTGVPDRFTGSGSGTDFTLTISNVQSEDLADYFCQQYSSYPLTFGAGTKLELK
notes: Mouse hybridoma antibody as tested; also called ILT7#11; anti-ILT7 antibody 411
B3: mouse anti-human ILT7 antibody #37 (monoclonal antibody produced by hybridoma #37) (antibody, V domains shown)
VH: B2 VH with S99A, P100L, Y102L, Y103P, A104W, M105F, D106A, S113L, S118A
VL: B2 VL with L96Y, A100G, L106I
notes: Mouse hybridoma antibody; also called ILT7#37; ILT7437

How the values were obtained:
[1] = biological target: T1, human ILT7 expressed on human IPCs (interferon producing cells, BDCA-2 positive cells of peripheral blood … (human, UniProt P59901 17-499)); assay: flow cytometry, multiple staining of human peripheral blood lymphocytes (Lineage-1, CD123, BDCA-2)
T1 construct: Natural protein on primary human cells; GenBank NM-012276 is printed for the cDNA; also called immunoglobulin-like transcript-7; ILT7 molecules expressed on human IPCs
T1 sequence (P59901 other isoform, or with tags, fused parts or gaps): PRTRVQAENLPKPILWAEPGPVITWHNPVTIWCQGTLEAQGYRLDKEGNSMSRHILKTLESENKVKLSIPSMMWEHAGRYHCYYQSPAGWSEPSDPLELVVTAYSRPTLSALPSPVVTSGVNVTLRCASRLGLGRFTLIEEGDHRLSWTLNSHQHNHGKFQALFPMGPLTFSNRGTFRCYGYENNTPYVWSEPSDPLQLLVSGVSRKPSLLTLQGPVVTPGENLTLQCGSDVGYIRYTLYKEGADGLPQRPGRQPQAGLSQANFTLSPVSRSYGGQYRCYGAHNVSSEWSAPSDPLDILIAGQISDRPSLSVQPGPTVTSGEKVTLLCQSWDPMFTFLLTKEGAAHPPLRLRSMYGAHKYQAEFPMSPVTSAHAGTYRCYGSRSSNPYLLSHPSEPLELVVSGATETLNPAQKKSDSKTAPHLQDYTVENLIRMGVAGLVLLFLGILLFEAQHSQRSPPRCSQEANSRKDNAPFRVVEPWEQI

[2] = biological target: ILT2 (on 293T cells, from pcDNA4.1-ILT2) (Homo sapiens (Human), UniProt Q8NHL6 24-650); assay: flow cytometry on 293T cells co-transfected with C-FLAG ILT1, ILT2, ILT3 and Myc-FcRγ
Sequence of ILT2 (on 293T cells, from pcDNA4.1-ILT2) (Q8NHL6 other isoform, or with tags, fused parts or gaps limits assumed): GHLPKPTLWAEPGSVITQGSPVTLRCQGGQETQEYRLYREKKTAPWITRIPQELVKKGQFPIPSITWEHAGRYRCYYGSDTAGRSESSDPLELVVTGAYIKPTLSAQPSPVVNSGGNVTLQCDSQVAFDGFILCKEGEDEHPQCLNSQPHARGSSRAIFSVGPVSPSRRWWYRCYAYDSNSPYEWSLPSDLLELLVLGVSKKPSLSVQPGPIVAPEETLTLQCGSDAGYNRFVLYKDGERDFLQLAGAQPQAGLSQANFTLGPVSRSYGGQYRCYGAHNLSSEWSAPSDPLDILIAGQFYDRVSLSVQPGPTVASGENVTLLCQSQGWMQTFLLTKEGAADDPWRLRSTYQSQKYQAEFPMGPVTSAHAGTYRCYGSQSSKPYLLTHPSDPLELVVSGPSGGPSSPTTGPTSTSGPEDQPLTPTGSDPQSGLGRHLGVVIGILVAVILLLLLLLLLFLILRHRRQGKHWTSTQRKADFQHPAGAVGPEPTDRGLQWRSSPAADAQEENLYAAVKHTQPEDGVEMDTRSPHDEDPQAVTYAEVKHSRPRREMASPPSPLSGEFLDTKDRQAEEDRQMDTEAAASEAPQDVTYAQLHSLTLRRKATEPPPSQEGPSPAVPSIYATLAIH

[3] = biological target: T2, C-FLAG ILT1 (human ILT1 with a FLAG tag at the C terminus, on 293T cells) (human, UniProt Q8N149 24-483); assay: as above
T2 construct: Cloned from a human tonsil cDNA library; also called pME18X-C-FLAGILT1; pME18X-C-FLAG ILT1
T2 sequence (Q8N149 other isoform, or with tags, fused parts or gaps limits assumed): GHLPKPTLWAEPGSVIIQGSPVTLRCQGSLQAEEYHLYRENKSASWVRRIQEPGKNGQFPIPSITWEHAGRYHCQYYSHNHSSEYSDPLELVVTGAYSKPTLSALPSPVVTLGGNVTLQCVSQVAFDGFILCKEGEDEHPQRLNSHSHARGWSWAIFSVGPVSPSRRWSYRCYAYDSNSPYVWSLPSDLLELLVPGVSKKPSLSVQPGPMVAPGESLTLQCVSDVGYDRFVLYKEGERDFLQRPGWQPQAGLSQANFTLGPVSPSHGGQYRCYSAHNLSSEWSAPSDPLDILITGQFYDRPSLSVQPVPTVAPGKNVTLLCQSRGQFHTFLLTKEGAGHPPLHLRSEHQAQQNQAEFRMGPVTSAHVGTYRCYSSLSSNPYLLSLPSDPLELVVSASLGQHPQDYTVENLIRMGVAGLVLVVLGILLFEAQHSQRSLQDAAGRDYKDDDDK

[4] = biological target: ILT3 (on 293T cells, from pcDNA4.1-ILT3) (Homo sapiens (Human), UniProt Q8NHJ6 22-448); assay: as above
Sequence of ILT3 (on 293T cells, from pcDNA4.1-ILT3) (Q8NHJ6 22-448 D223G/Q414R limits assumed): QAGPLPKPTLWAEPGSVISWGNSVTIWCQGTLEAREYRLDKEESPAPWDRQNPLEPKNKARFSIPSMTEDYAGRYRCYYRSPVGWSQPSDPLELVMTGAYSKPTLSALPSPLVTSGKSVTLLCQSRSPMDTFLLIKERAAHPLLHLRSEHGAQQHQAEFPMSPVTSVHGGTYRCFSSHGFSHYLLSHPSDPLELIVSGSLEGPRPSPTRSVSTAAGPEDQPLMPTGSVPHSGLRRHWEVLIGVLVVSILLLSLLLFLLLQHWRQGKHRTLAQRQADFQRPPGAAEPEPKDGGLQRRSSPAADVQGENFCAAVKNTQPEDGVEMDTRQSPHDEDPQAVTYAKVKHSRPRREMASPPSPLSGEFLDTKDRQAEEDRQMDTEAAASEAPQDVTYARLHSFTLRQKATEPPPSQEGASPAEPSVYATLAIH

[5] = biological target: T3, C-FLAG ILT7 (human ILT7 with FLAG tag at the C terminus, co-expressed with Myc-FcRγ) (human, UniProt P59901 17-499); assay: cell-based or functional assay
T3 sequence (P59901 other isoform, or with tags, fused parts or gaps): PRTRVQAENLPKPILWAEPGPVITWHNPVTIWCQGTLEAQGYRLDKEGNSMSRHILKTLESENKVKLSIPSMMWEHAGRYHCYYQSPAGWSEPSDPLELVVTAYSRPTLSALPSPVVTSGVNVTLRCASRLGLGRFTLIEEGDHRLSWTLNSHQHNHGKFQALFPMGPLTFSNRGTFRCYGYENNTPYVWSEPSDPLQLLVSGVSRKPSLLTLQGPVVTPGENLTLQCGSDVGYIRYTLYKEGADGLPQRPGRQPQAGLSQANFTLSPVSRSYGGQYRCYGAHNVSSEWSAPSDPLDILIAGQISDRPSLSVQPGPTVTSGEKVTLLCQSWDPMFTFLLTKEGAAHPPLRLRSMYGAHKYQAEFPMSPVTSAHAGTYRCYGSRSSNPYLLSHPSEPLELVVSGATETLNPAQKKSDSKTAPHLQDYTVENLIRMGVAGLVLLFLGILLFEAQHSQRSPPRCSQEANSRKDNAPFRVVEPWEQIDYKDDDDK

[6] = biological target: T3, C-FLAG ILT7 (human ILT7 with FLAG tag …); assay: flow cytometry of hybridoma supernatant on 293T cells transfected with C-FLAG ILT7 and Myc-FcRγ
[7] = biological target: T4, N-FLAG ILT7 (human ILT7 with FLAG tag attached to the N terminus, co-expressed with Myc-FcRγ on 293T cells) (human, UniProt P59901 17-499); assay: flow cytometry on 293T cells co-expressing N-FLAG ILT7 and Myc-FcRγ
T4 construct: also called pME18X-N-FLAG ILT7; ILT7 molecules with a FLAG tag
T4 sequence (P59901 other isoform, or with tags, fused parts or gaps): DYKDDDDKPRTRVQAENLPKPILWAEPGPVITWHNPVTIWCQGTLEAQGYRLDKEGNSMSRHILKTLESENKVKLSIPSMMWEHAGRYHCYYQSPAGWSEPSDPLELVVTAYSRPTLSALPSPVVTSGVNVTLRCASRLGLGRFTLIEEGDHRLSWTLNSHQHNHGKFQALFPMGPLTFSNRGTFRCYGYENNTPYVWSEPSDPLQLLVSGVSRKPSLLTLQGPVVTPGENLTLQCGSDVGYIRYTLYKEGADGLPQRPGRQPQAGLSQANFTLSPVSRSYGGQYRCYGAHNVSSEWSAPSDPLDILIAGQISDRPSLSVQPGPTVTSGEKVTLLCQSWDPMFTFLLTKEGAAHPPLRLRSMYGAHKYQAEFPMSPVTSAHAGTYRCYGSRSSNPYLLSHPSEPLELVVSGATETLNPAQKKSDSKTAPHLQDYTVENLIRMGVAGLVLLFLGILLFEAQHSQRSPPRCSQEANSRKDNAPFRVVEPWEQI

[8] = biological target: T1, human ILT7 expressed on human IPCs …; assay: flow cytometry on human lymphocytes, with anti-CD123 antibody
[9] = biological target: T1, human ILT7 expressed on human IPCs …; assay: flow cytometry as in B of Example 2 (human peripheral blood lymphocytes, BDCA-2 positive cells)

| Binder | binding result [1] | binding result [2] | binding result [3] | binding result [4] | APC fluorescence intensity ratio (%), 37 °C against 4 °C (internalization on ILT7-CHO cells) [5] | FITC fluorescence intensity ratio (%), 37 °C against 4 °C (internalization on ILT7-CHO cells) [5] | binding result [6] | binding result [7] | binding result [8] | binding result [9] |
| --- | --- | --- | --- | --- | --- | --- | --- | --- | --- | --- |
| B1 | binds | no binding | no binding | no binding | 95.4% | 44.5% |  |  |  |  |
| B2 |  | no binding | no binding | no binding |  |  | binds | binds | binds |  |
| B3 |  |  |  |  | 98.2% | 55.9% |  |  |  | binds |
